Reference: the supplement of paper PMC10567573

B1: MIA2 (parent)
chain: NSISSDKEATVPCTEILTEKKDTI
B2: INTS3 (parent)
chain: YPPLEGHVRQGVFSSLNHIVEKRV

Variants of: B1
Assay: protein stability index of a GFP-peptide fusion (GPS, HEK-293T) (PSI 1-6); higher = more stable
Details: c terminus: a fixed tail appended
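Further: lentivirally expressed fusions sorted by FACS into six bins by GFP to DsRed ratio, PSI derived from sequencing read proportions per bin multiplied by bin number.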

Variant	protein stability index
NSQSSDKEATVPCTEILTEKKDTI [I3Q]	5.6
NSSSSDKEATVPCTEILTEKKDTI [I3S]	5.42
NSISSDKEATPPCTEILTEKKDTI [V11P]	5.55
NSISSDKEATQPCTEILTEKKDTI [V11Q]	5.53
NSISSDKEATEPCTEILTEKKDTI [V11E]	5.52
NSISSDKEATGPCTEILTEKKDTI [V11G]	5.07
NSISSDKEATYPCTEILTEKKDTI [V11Y]	4.89
NSISSDKEATTPCTEILTEKKDTI [V11T]	5.67
NSISSDKEATCPCTEILTEKKDTI [V11C]	4.84
NSISSDKEATAPCTEILTEKKDTI [V11A]	5.38
NSISSDKEATRPCTEILTEKKDTI [V11R]	5.28
NSISSDKEATVPCTEILTEQKDTI [K20Q]	5.39
NSISSDKEATVPCTEILTECKDTI [K20C]	5.25
NSISSDKEATVPCTEILTEPKDTI [K20P]	5.3
NSISSDKEATVPCTEILTEMKDTI [K20M]	5.35

Variants of: B2
Assay: as above
Details: c terminus: a fixed tail appended

Variant	protein stability index
YPPLEGHVRQGVFSSLNHIVVKRV [E21V]	2.48
YPPLEGHVRQGVFSSLNHIVFKRV [E21F]	2.72
YPPLEGHVRQGVFSSLNHIVPKRV [E21P]	2.26
YPPLEGHVRQGVFSSLNHIVYKRV [E21Y]	2.23
YPPLEGHVRQGVFSSLNHIVDKRV [E21D]	3.35
YPPLEGHVRQGVFSSLNHIVLKRV [E21L]	2.29
YPPLEGHVRQGVFSSLNHIVAKRV [E21A]	2.23
YPPLEGHVRQGVFSSLNHIVIKRV [E21I]	1.74
YPPLEGHVRQGVFSSLNHIVTKRV [E21T]	2.54
YPPLEGHVRQGVFSSLNHIVHKRV [E21H]	2.86
YPPLEGHVRQGVFSSLNHIVKKRV [E21K]	2.26
YPPLEGHVRQGVFSSLNHIVNKRV [E21N]	2.21
YPPLEGHVRQGVFSSLNHIVGKRV [E21G]	2.68
YPPLEGHVRQGVFSSLNHIVQKRV [E21Q]	1.79
YPPLEGHVRQGVFSSLNHIVSKRV [E21S]	2.05
YPPLEGHVRQGVFSSLNHIVWKRV [E21W]	1.95
YPPLEGHVRQGVFSSLNHIVRKRV [E21R]	2.45
YPPLEGHVRQGVFSSLNHIVCKRV [E21C]	2.23
YPPLEGHVRQGVFSSLNHIVMKRV [E21M]	2.75
YPPLEGHVRQGVFSSLNHIVEYRV [K22Y]	1.34
YPPLEGHVRQGVFSSLNHIVEWRV [K22W]	2.14
YPPLEGHVRQGVFSSLNHIVERRV [K22R]	2.75
YPPLEGHVRQGVFSSLNHIVEHRV [K22H]	2.65
YPPLEGHVRQGVFSSLNHIVENRV [K22N]	2.46
YPPLEGHVRQGVFSSLNHIVEGRV [K22G]	1.92
YPPLEGHVRQGVFSSLNHIVEPRV [K22P]	3.01
YPPLEGHVRQGVFSSLNHIVECRV [K22C]	1.43

Variant	protein stability index
YPPLEGHVRQGVFSSLNHIVEMRV [K22M]	1.73
YPPLEGHVRQGVFSSLNHIVEDRV [K22D]	2.2
YPPLEGHVRQGVFSSLNHIVEERV [K22E]	2.63
YPPLEGHVRQGVFSSLNHIVEFRV [K22F]	3.12
YPPLEGHVRQGVFSSLNHIVEQRV [K22Q]	2.23
YPPLEGHVRQGVFSSLNHIVEARV [K22A]	2.29
YPPLEGHVRQGVFSSLNHIVETRV [K22T]	2.23
YPPLEGHVRQGVFSSLNHIVELRV [K22L]	2.33
YPPLEGHVRQGVFSSLNHIVESRV [K22S]	2.09
YPPLEGHVRQGVFSSLNHIVEKTV [R23T]	2.53
YPPLEGHVRQGVFSSLNHIVEKQV [R23Q]	2.83
YPPLEGHVRQGVFSSLNHIVEKIV [R23I]	2.17
YPPLEGHVRQGVFSSLNHIVEKLV [R23L]	1.98
YPPLEGHVRQGVFSSLNHIVEKFV [R23F]	1.81
YPPLEGHVRQGVFSSLNHIVEKNV [R23N]	2.6
YPPLEGHVRQGVFSSLNHIVEKEV [R23E]	2.68
YPPLEGHVRQGVFSSLNHIVEKHV [R23H]	2.4
YPPLEGHVRQGVFSSLNHIVEKKV [R23K]	2.7
YPPLEGHVRQGVFSSLNHIVEKCV [R23C]	2.22
YPPLEGHVRQGVFSSLNHIVEKPV [R23P]	2.39
YPPLEGHVRQGVFSSLNHIVEKAV [R23A]	2.19
YPPLEGHVRQGVFSSLNHIVEKYV [R23Y]	2.48
YPPLEGHVRQGVFSSLNHIVEKGV [R23G]	2.2
YPPLEGHVRQGVFSSLNHIVEKWV [R23W]	2.62
YPPLEGHVRQGVFSSLNHIVEKVV [R23V]	1.85
YPPLEGHVRQGVFSSLNHIVEKMV [R23M]	1.7
YPPLEGHVRQGVFSSLNHIVEKDV [R23D]	2.83

Variant	protein stability index
YPPLEGHVRQGVFSSLNHIVEKSV [R23S]	2.67
YPPLEGHVRQGVFSSLNHIVEKRG [V24G]	3.08
YPPLEGHVRQGVFSSLNHIVEKRQ [V24Q]	2.57
YPPLEGHVRQGVFSSLNHIVEKRK [V24K]	2.4
YPPLEGHVRQGVFSSLNHIVEKRW [V24W]	2.68
YPPLEGHVRQGVFSSLNHIVEKRM [V24M]	2.06
YPPLEGHVRQGVFSSLNHIVEKRD [V24D]	3.16
YPPLEGHVRQGVFSSLNHIVEKRT [V24T]	2.09
YPPLEGHVRQGVFSSLNHIVEKRI [V24I]	2.69
YPPLEGHVRQGVFSSLNHIVEKRH [V24H]	2.29
YPPLEGHVRQGVFSSLNHIVEKRP [V24P]	2.74
YPPLEGHVRQGVFSSLNHIVEKRE [V24E]	3.32
YPPLEGHVRQGVFSSLNHIVEKRL [V24L]	2.78
YPPLEGHVRQGVFSSLNHIVEKRR [V24R]	2.9
YPPLEGHVRQGVFSSLNHIVEKRS [V24S]	2.58
YPPLEGHVRQGVFSSLNHIVEKRF [V24F]	1.99
YPPLEGHVRQGVFSSLNHIVEKRN [V24N]	2.83
YPPLEGHVRQGVFSSLNHIVEKRY [V24Y]	1.95
YPPLEGHVRQGVFSSLNHIVEKRC [V24C]	2.01
YPPLEGHVRQGVFSSLNHIVEKRA [V24A]	3.31
YPPLEGHVRQGVFSSLNHIWEKRV [V20W]	2.02
YPPLEGHVRQGVFSSLNHIREKRV [V20R]	2.9
YPPLEGHVRQGVFSSLNHIYEKRV [V20Y]	2.27
YPPLEGHVRQGVFSSLNHISEKRV [V20S]	2.29
YPPLEGHVRQGVFSSLNHITEKRV [V20T]	2.48
